First the molecules themselves.
B1: Smc3 (other, mouse (murine ES cells), UniProt Q9CW03 1-1217, looked up)
chain: MYIKQVIIQGFRSYRDQTIVDPFSSKHNVIVGRNGSGKSNFFYAIQFVLSDEFSHLRPEQRLALLHEGTGPRVISAFVEIIFDNSDNRLPIDKEEVSLRRVIGAKKDQYFLDKKMVTKNDVMNLLESAGFSRSNPYYIVKQGKINQMATAPDSQRLKLLREVAGTRVYDERKEESISLMKETEGKREKINELLKYIEERLHTLEEEKEELAQYQKWDKMRRALEYTIYNQELNETRAKLDELSAKRETSGEKSRQLRDAQQDARDKMEDIERQVRELKTKISAMKEEKEQLSAERQEQIKQRTKLELKAKDLQDELAGNSEQRKRLLKERQKLLEKIEEKQKELAETEPKFNSVKEKEERGIARLAQATQERTDLYAKQGRGSQFTSKEERDKWIKKELKSLDQAINDKKRQIAAIHKDLEDTEANKEKNLEQYNKLDQDLNEVKARVEELDRKYYEVKNKKDELQSERNYLWREENAEQQALAAKREDLEKKQQLLRAATGKAILNGIDSINKVLEHFRRKGINQHVQNGYHGIVMNNFECEPAFYTCVEVTAGNRLFYHIVDSDEVSTKILMEFNKMNLPGEVTFLPLNKLDVRDTAYPETNDAIPMISKLRYNPRFDKAFKHVFGKTLICRSMEVSTQLARAFTMDCITLEGDQVSHRGALTGGYYDTRKSRLELQKDVRKAEEELGELEAKLNENLRRNIERINNEIDQLMNQMQQIETQQRKFKASRDSILSEMKMLKEKRQQSEKTFMPKQRSLQSLEASLHAMESTRESLKAELGTDLLSQLSLEDQKRVDALNDEIRQLQQENRQLLNERIKLEGIITRVETYLNENLRKRLDQVEQELNELRETEGGTVLTATTSELEAINKRVKDTMARSEDLDNSIDKTEAGIKELQKSMERWKNMEKEHMDAINHDTKELEKMTNRQGMLLKKKEECMKKIRELGSLPQEAFEKYQTLSLKQLFRKLEQCNTELKKYSHVNKKALDQFVNFSEQKEKLIKRQEELDRGYKSIMELMNVLELRKYEAIQLTFKQVSKNFSEVFQKLVPGGKATLVMKKGDVEGSQSQDEGEGSGESERGSGSQSSVPSVDQFTGVGIRVSFTGKQGEMREMQQLSGGQKSLVALALIFAIQKCDPAPFYLFDEIDQALDAQHRKAVSDMIMELAVHAQFITTTFRPELLESADKFYGVKFRNKVSHIDVITAEMAKDFVEDDTTHG
notes: Endogenous protein of murine ES cells; also called cohesin core complex protein Smc3
B2: Med23 (other, mouse (murine ES cells), UniProt Q80YQ2 1-1367, looked up)
chain: METQLQSIFEEVVKTEIIEEAFPGMFMDTPEDEKTKLISCLAAFRQFWSGLSQESHEQCVQWIVKFIHGQHSPKRISFLYDCLAMAVETGLLPPRMVCESLINSDSLEWERTQLWALTFKLVRKIIGGVDYKGVRDLLKAILEKILTIPNTVSSAVVQQLLAAREVIAYILERNACLLPAYFAVTEIRKLYPEGKLPHWLLGNLVSDFVDTFRPTARINSICGRCSLLPVVNNSGAICNSWKLDPATLRFPLKGLLPYDKDLFEPQTALLRYVLEQPYSRDMVCNMLGLNKQHKQRCPVLEDQLVDLVVYAMERSETEEKFDDGGTSQLLWQHLSSQLIFFVLFQFASFPHMVLSLHQKLAGRGLIKGRDHLMWVLLQFISGSIQKNALADFLPVMKLFDLLYPEKECIPVPDINKPQSTHAFAMTCIWIHLNRKAQNGDSTLQIPIPHSLKLHHEFLQQSLRNKSLQMNDYKIALLCNAYSTNSECFTLPMGALVETIYGNGIMRVPLPGTSCLASASVTPLPMNLLDSLTVHAKMSLIHSIATRVIKLAHTKSSVALAPALVETYSRLLVYMEIESLGIKGFISQLLPTVFKSHAWGILHTLLEMFSHRMHHIQPHYRVQLLSHLHTLAAVAQTNQNQLHLCVESTALRLITALGSSEVQPQFTRFLNDPKTVLSAESEELNRALILTLARATHVTDFFTGSDSIQGTWCKDILQTIMNFTPHNWASHTLSCFPAPLQAFFKQNNVPQESRFNLKKNVEEEYRKWKSMTDENEIITQFSVQGFPPLFLCLLWKMLLETDHISQIGYKVLERIGARALVAHVRTFADFLVYEFSTSAGGQQLNKCIEILNDMVWKYNIVTLDRLILCLAMRSHEGNEAQVCYFIIQLLLLKPNDFRNRVSDFVKENSPEHWLQSDWHTKHMSYHKKYPEKLYFEGLAEQVDPPVPIQSPYLPIYFGNVCLRFLPVFDIVIHRFLELLPVSKSLETLLDHLGGLYKFHDRPVTYLYNTLHYYEMCLRNRDHLKRKLVHAIIGSLKDNRPQGWCLSDTYLKHAMNAREDNPWVPEDSYYCKLIGRLVDTMAGKSPGPFPNCDWRFNEFPNPAAHALHVTCVELMALAVPGKDVGNALLNVVLKSQPLVPRENITAWMNAIGLIITALPEPYWIVLHDRIVNVISSSSLTSETEWVGYPFRLFDFTACHQSYSEMSCSYTLALAHAVWHHSSIGQLSLIPKFLTEALLPVVKTEFQLLYVYHLVGPFLQRFQQERTRCMIEIGVAFYDMLLNVDQCSTHLNYMDPICDFLYHMKYMFTGDSVKEQVEKIICNLKPALKLRLRFITHISKMEPAVPPQALNSGSPAPQSNQVPASLPVTQ
notes: Endogenous protein in crosslinked chromatin or nuclear extract of V6.5 murine ES cells; also called mediator subunit Med23
B3: Smc1a (other, mouse (murine ES cells), UniProt Q9CU62 1-1233, looked up)
chain: MGFLKLIEIENFKSYKGRQIIGPFQRFTAIIGPNGSGKSNLMDAISFVLGEKTSNLRVKTLRDLIHGAPVGKPAANRAFVSMVYSEEGAEDRTFARVIVGGSSEYKINNKVVQLHEYSEELEKLGILIKARNFLVFQGAVESIAMKNPKERTALFEEISRSGELAQEYDKRKKEMVKAEEDTQFNYHRKKNIAAERKEAKQEKEEADRYQRLKDEVVRAQVQLQLFKLYHNEVEIEKLNKELASKNKEIEKDKKRMDKVEDELKEKKKELGKMMREQQQIEKEIKEKDSELNQKRPQYIKAKENTSHKIKKLEAAKKSLQNAQKHYKKRKGDMDELEKEMLSVEKARQEFEERMEEESQSQGRDLTLEENQVKKYHRLKEEASKRAATLAQELEKFNRDQKADQDRLDLEERKKVETEAKIKQKLREIEENQKRIEKLEEYITTSKQSLEEQKKLEGELTEEVEMAKRRIDEINKELNQVMEQLGDARIDRQESSRQQRKAEIMESIKRLYPGSVYGRLIDLCQPTQKKYQIAVTKVLGKNMDAIIVDSEKTGRDCIQYIKEQRGEPETFLPLDYLEVKPTDEKLRELKGAKLVIDVIRYEPPHIKKALQYACGNALVCDNVEDARRIAFGGHQRHKTVALDGTLFQKSGVISGGASDLKAKARRWDEKAVDKLKEKKERLTEELKEQMKAKRKEAELRQVQSQAHGLQMRLKYSQSDLEQTKTRHLALNLQEKSKLESELANFGPRINDIKRIIQSREREMKDLKEKMNQVEDEVFEEFCREIGVRNIREFEEEKVKRQNEIAKKRLEFENQKTRLGIQLDFEKNQLKEDQDKVHMWEQTVKKDENEIEKLKKEEQRHMKIIDETMAQLQDLKNQHLAKKSEVNDKNHEMEEIRKKLGGANKEMTHLQKEVTAIETKLEQKRSDRHNLLQACKMQDIKLPLSKGTMDDISQEEGSSQGEESVSGSQRTSSIYAREALIEIDYGDLCEDLKDAQAEEEIKQEMNTLQQKLNEQQSVLQRIAAPNMKAMEKLESVRDKFQETSDEFEAARKRAKKAKQAFEQIKKERFDRFNACFESVATNIDEIYKALSRNSSAQAFLGPENPEEPYLDGINYNCVAPGKRFRPMDNLSGGEKTVAALALLFAIHSYKPAPFFVLDEIDAALDNTNIGKVANYIKEQSTCNFQAIVISLKEEFYTKAESLIGVYPEQGDCVISKVLTFDLTKYPDANPNPNEQ
notes: Endogenous protein of murine ES cells; also called cohesin core complex protein Smc1a

Assay [1] addresses B2. Kind of assay: ChIP-western: IP of crosslinked, sheared murine ES cell chromatin with anti-Smc3, western blot for Med23. The text has this: (§1) FIG. 3 Mediator and cohesin interact. a, Mediator (Med23) is detected by western blot (WB) when crosslinked, sheared chromatin is subjected to immunoprecipitation with antibodies against mediator (Med1, Med12) or cohesin (Smc1a, Smc3). WCE, whole-cell extract. b, Cohesin (Smc1a, Smc3) and mediator (Med23) are detected by western blot after immunoprecipitation of uncrosslinked ES cell nuclear extracts (NE) with a Nipb1 antibody. c, Cohesin (Smc3) and Nipb1 co-purify with mediator. The input fractions and immunoprecipitated eluate (IP Eluate) were examined by western blot and silver staining. Molecular weight (MW) markers (kDa) are shown.
(§2) For ChIP-Western, same conditions as for ChIP-Seq were used. For co-immunoprecipitation, murine ES cells were harvested in cold PBS and extracted for 30 min at 4° C. in TNEN250 (50 mM Tris pH 7.5, 5 mM EDTA, 250 mM NaCl, 0.1% NP-40) with protease inhibitors. After centrifugation, supernatant was mixed to 2 volumes of TNENG (50 mM Tris pH 7.5, 5 mM EDTA, 100 mM NaCl, 0.1% NP-40, 10% glycerol).
In general terms: A western blot detects proteins with antibodies after separation by electrophoresis.

The next assay addresses T1, Med12 (mouse (murine ES cells), UniProt A2AGH6 1-2190).
T1 construct: Endogenous protein immunoprecipitated from crosslinked murine ES cell chromatin; also called mediator subunit Med12
Nature of the assay: ChIP-western: IP of crosslinked, sheared murine ES cell chromatin with anti-Med12, western blot for Med23.
Description: as §1, §2

Another assay has as its target T2, Med1 (mouse (murine ES cells), UniProt Q925J9 1-1575).
T2 construct: Endogenous protein immunoprecipitated from crosslinked murine ES cell chromatin; also called CRSP1/TRAP220; mediator subunit Med1
Nature of the assay: ChIP-western: IP of crosslinked, sheared murine ES cell chromatin with anti-Med1, western blot for Med23.
Description: as §1, §2

In assay [2] the target is B2. Nature of the assay: ChIP-western: IP of crosslinked, sheared murine ES cell chromatin with anti-Smc1a, western blot for Med23.
Description: as §1, §2

T2 sequence (Q925J9 whole entry): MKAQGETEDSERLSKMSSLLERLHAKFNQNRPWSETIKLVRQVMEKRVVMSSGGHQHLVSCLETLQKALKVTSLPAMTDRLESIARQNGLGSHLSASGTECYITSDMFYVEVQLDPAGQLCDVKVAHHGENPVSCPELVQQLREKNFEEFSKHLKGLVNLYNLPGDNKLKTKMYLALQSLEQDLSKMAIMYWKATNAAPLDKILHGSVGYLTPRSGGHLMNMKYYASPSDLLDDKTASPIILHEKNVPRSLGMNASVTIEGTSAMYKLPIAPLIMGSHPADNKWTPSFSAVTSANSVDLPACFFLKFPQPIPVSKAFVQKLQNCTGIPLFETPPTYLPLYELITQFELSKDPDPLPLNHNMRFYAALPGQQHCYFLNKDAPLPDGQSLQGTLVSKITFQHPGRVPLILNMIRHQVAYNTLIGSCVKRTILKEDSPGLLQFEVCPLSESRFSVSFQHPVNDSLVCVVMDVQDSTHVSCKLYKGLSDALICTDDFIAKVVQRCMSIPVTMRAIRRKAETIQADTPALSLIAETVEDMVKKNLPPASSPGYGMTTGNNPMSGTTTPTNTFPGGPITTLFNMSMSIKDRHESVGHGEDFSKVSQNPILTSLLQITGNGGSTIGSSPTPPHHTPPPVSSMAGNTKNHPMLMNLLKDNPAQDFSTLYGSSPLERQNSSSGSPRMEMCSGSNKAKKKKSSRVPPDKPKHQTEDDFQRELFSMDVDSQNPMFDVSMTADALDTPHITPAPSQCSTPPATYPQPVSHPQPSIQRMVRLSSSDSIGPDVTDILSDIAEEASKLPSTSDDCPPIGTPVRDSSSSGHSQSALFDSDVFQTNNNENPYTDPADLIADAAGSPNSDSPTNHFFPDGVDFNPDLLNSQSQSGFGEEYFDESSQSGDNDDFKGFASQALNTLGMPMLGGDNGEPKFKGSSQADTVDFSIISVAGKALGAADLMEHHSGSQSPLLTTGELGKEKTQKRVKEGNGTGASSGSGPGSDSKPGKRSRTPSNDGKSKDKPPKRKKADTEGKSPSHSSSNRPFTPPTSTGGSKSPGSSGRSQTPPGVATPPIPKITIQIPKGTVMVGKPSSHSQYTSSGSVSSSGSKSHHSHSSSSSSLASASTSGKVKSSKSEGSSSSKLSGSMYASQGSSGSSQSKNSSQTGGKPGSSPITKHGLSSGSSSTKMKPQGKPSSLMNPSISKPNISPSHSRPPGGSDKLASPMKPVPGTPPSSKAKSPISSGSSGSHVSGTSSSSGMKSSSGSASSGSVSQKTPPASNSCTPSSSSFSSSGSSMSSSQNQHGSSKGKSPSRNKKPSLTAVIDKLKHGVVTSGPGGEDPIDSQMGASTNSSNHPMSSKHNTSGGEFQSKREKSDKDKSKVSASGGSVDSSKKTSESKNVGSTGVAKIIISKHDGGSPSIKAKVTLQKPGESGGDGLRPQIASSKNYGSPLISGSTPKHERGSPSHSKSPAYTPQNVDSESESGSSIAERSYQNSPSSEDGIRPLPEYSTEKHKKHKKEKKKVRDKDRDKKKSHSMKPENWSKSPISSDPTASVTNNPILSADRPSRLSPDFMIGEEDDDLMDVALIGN
T1 sequence (A2AGH6 whole entry): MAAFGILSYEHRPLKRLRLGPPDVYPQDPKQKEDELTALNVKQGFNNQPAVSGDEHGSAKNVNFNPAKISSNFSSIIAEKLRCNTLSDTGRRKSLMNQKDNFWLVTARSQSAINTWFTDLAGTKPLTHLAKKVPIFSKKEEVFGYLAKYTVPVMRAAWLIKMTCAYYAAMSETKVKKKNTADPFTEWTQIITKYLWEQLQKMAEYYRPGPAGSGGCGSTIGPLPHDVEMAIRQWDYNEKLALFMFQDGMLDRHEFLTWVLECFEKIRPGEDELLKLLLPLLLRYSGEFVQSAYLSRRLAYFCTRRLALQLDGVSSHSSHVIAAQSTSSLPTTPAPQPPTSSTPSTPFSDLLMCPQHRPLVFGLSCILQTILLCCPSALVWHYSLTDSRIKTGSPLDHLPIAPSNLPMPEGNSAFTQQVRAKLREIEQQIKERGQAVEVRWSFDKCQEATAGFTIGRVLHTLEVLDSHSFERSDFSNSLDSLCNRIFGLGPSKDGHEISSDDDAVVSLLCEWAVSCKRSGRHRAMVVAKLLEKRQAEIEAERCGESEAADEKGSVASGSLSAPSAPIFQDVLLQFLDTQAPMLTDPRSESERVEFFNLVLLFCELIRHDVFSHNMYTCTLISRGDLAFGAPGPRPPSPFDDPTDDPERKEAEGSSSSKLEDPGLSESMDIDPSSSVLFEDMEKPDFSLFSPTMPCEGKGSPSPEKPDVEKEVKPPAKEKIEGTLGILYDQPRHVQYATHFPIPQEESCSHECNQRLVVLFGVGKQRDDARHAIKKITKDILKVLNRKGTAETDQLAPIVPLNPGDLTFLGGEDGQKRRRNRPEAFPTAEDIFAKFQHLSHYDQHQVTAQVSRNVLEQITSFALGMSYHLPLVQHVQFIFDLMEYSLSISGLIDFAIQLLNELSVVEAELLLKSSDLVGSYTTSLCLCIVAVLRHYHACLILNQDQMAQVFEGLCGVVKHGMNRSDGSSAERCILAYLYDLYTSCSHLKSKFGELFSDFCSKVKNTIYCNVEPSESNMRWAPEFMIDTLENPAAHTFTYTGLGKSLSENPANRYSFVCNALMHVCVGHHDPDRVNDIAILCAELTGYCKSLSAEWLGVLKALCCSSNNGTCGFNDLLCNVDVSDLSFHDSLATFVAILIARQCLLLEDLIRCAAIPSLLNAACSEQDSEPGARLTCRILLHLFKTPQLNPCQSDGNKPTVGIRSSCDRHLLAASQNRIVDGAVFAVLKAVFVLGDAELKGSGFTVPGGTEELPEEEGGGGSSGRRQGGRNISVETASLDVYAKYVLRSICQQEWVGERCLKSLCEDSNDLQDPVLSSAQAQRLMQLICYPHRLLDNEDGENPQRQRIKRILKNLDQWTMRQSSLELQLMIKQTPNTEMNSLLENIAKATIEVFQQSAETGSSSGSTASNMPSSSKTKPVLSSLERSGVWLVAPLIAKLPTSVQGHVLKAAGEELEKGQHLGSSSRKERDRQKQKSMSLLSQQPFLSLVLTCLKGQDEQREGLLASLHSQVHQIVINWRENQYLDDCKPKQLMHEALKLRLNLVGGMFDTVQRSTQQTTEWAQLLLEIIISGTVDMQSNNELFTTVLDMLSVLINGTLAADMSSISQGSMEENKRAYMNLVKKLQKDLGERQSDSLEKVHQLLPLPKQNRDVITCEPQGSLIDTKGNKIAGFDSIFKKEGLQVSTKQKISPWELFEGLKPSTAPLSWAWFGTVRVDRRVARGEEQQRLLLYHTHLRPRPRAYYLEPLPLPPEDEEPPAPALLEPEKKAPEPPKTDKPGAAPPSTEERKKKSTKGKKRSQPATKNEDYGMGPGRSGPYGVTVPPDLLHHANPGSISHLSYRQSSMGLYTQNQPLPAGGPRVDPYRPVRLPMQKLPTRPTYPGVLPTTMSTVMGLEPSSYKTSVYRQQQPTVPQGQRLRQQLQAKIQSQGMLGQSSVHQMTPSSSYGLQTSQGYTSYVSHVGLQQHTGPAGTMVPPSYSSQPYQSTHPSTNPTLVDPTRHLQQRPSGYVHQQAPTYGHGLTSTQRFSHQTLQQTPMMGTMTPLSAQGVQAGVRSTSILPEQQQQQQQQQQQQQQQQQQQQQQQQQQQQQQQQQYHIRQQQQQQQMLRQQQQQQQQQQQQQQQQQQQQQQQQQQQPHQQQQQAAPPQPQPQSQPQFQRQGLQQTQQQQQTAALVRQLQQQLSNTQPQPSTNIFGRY

Take B1: in the assay with Med23 [1], the binding result was “binds”.

For B2, the binding result with Med12 and with Med1 was “binds” each time.

Consider B3, for which the binding result with Med23 [2] is “binds”.

The values above are taken from patent publication US20130109737A1 (published 2013).
